Data taken from patent US10314894B2, “Treatment of cardio-renal disease using PCSK6” (THE CLEVELAND CLINIC FOUNDATION, priority 2014, dated 2019).

Tests used:
corin mutant R801A [1] = target: T1, corin mutant R801A (Homo sapiens, UniProt Q9Y5Q5, R801A); experiment: Corin activation by purified PCSK6 on HEK293 cells, corin mutant R801A; assay type: cell-based; conditions: corin R801A mutant lacking the cleavage site, 2 h
T1 construct: expressed in transfected cells; host or cells: HEK293
T1 sequence (Q9Y5Q5 1-1042 R801A): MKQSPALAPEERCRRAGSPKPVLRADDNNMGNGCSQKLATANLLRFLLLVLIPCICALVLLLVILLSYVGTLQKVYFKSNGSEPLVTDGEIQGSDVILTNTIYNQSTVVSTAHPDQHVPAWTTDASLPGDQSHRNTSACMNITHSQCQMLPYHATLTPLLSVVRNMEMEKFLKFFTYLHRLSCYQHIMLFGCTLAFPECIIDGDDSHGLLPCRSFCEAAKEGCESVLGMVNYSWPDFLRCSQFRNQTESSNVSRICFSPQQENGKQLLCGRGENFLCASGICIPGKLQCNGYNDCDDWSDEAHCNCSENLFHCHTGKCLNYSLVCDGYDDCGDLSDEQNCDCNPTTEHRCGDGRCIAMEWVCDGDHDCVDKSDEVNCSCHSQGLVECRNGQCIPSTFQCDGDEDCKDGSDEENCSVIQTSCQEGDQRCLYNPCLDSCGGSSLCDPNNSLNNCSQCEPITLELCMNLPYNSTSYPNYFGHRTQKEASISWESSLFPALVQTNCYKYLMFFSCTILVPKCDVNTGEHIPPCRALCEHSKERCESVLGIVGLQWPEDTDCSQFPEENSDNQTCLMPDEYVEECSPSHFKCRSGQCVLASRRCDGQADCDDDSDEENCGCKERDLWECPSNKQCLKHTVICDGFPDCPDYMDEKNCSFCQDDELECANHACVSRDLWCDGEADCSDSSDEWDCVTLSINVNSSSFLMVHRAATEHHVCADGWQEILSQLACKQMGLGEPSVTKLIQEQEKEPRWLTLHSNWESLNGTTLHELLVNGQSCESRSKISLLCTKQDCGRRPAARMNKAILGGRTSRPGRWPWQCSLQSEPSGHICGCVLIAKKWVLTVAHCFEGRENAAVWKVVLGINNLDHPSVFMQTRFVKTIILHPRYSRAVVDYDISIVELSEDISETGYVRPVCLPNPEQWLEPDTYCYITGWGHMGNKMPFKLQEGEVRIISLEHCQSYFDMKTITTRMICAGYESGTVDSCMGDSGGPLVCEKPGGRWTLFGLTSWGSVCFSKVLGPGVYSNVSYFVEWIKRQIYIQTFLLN
Protocol: HEK293 and HL-1 cells expressing recombinant corin in 6-well plates were incubated with 1.5 mL (200 μM) of membrane impermeable Sulfo-NHS-SS-biotin for 5 min. Qi et al., J Biol Chem 286, 20963-20969 (2011). A quenching solution was added to the wells and incubated on ice for 10 min. Cells were lysed in the lysis buffer. Labeled proteins were isolated with avidin-coupled agarose beads and analyzed by Western blotting.
Stable HEK293 cells were established to produce human PCSK6 with a C-terminal flag tag. The cells were cultured in DMEM with 10% FBS and 600 μg/mL G418. At confluency, the cells were washed with PBS and cultured with Reduced-Serum Medium. After 72 h, the conditioned medium was collected, centrifuged (10 min at 17,000 g) to remove cell debris, and concentrated to ⅕ of the original volume using a Centrifugal filter unit at 4° C. The concentrated medium was incubated with anti-flag M2 affinity bead slurry in a volume ratio of 25:1 on a rotator at 4° C. for 2 h. […] After centrifugation, the supernatant containing purified PCSK6 was collected, and analyzed by SDS-PAGE followed by silver staining and Western blotting.
Stable HEK293 cells expressing human corin were cultured in 6-well plates in DMEM with 10% FBS and 2 μM monensin. […] After 2 h, cell surface proteins were labeled and corin protein was analyzed by Western blotting.

corin mutant R801A [2] = target: T1, corin mutant R801A; experiment: PCSK6-mediated corin activation in HEK293 cells, corin mutant R801A (control); assay type: cell-based; conditions: corin mutant R801A lacking the cleavage site
Description: Plasmids expressing human corin WT and mutants R801A, S985A, T555I, Q568P, T555I/Q568P, K317E, S472G and R539C were reported previously. Dong, N. et al., J Biol Chem 289, 17909-17916 (2014); Knappe et al., J Biol Chem 278, 52363-52370 (2003); Wu et al., J Biol Chem 277, 16900-16905. (2002). Plasmids expressing human PCSK1-9 were made by cloning respective cDNAs into pcNDA3.1 vector. Recombinant corin and PCSK proteins encoded by these plasmids contained a C-terminal V5 or flag tag for protein detection in Western blotting.
HEK293 and HL-1 cells were transfected with corin or PCSK6 expression plasmids. After 48-72 h, cells were lysed in a buffer containing 25 mM Tris-HCl, pH 7.4, 150 mM NaCl, 1 mM EDTA, 1% (v/v) NP-40, and 1% (v/v) protease inhibitor cocktail. Recombinant corin and PCSK6 proteins were immunoprecipitated with an anti-V5 or anti-flag antibody. Western blotting was carried out to analyze corin expression and activation or PCSK6 expression with or without reducing agents. Percentage of corin activation (corin-p vs. corin fragments) was quantified by densitometric analysis of Western blots.

B1: proprotein convertase subtilisin/kexin-6 (protein, listed as Homo sapiens)
chain: MPPRAPPAPGPRPPPRAAAATDTAAGAGGAGGAGGAGGPGFRPLAPRPWRWLLLLALPAACSAPPPRPVYTNHWAVQVLGGPAEADRVAAAHGYLNLGQIGNLEDYYHFYHSKTFKRSTLSSRGPHTFLRMDPQVKWLQQQEVKRRVKRQVRSDPQALYFNDPIWSNMWYLHCGDKNSRCRSEMNVQAAWKRGYTGKNVVVTILDDGIERNHPDLAPNYDSYASYDVNGNDYDPSPRYDASNENKHGTRCAGEVAASANNSYCIVGIAYNAKIGGIRMLDGDVTDVVEAKSLGIRPNYIDIYSASWGPDDDGKTVDGPGRLAKQAFEYGIKKGRQGLGSIFVWASGNGGREGDYCSCDGYTNSIYTISVSSATENGYKPWYLEECASTLATTYSSGAFYERKIVTTDLRQRCTDGHTGTSVSAPMVAGIIALALEANSQLTWRDVQHLLVKTSRPAHLKASDWKVNGAGHKVSHFYGFGLVDAEALVVEAKKWTAVPSQHMCVAASDKRPRSIPLVQVLRTTALTSACAEHSDQRVVYLEHVVVRTSISHPRRGDLQIYLVSPSGTKSQLLAKRLLDLSNEGFTNWEFMTVHCWGEKAEGQWTLEIQDLPSQVRNPEKQGKLKEWSLILYGTAEHPYHTFSAHQSRSRMLELSAPELEPPKAALSPSQVEVPEDEEDYTAQSTPGSANILQTSVCHPECGDKGCDGPNADQCLNCVHFSLGSVKTSRKCVSVCPLGYFGDTAARRCRRCHKGCETCSSRAATQCLSCRRGFYHHQEMNTCVTLCPAGFYADESQKNCLKCHPSCKKCVDEPEKCTVCKEGFSLARGSCIPDCEPGTYFDSELIRCGECHHTCGTCVGPGREECIHCAKNFHFHDWKCVPACGEGFYPEEMPGLPHKVCRRCDENCLSCAGSSRNCSRCKTGFTQLGTSCITNHTCSNADETFCEMVKSNRLCERKLFIQFCCRTCLLAG
modifications: C-terminal FLAG tag
activation of corin on the cell surface by purified recombinant PCSK6 (corin mutant R801A [1]): did not cleave
PCSK6-mediated activation cleavage (corin mutant R801A [2]): no activation cleavage was detected
